Reference: publication PMC12182893

Molecular target: Pseudotyped lentivirus displaying Omicron BA.5 S protein (PV) (SARS-CoV-2 Omicron BA.5) (UniProt P0DTC2)
Test: dot blot (filter binding)

Row | Sequence | Kd [pM]
1 | TTACGTCAAGGTGTCACTCCTGTGGGTGGAATGGGGAAGGGAGTGTTTTTTTTTGTGAGATGTGTGGTGTGGAATGGGGAAGCATCTCTTTGGCGTG [DRDA8] | 0.0028
2 | TTACGTCAAGGTGTCACTCCTGTGGGTGGAATGGGGAAGGGAGTGTTTTTTTTTTCGGAGATGTGTGTGTGAAACAGTGGGAAGCATCTCTTTGGCGTG [DRDA10] | 0.0043
